Source: US20210115424A1 (University of California, published 2021)

Columns and labels:
[1] = target: T1, SpaA derived sorting signal peptide KNAGFELPLTGGSGRI
T1 chain: KNAGFELPLTGGSGRI

[2] = target: SpaA, soluble form (residues 30-500) lacking the N-terminal signal peptide and C-terminal membrane anchor domain
[3] = target: ^NSpaA, N-terminal domain of SpaA (residues 30-194) containing the pilin motif with K190
[4] = target: T2, LPATG peptide KNAGFELPATGGSGRI
T2 chain: KNAGFELPATGGSGRI

[5] = target: ^CSpaA, C-terminal domain of SpaA (residues 350-500) containing the LPLTG sorting signal
[6] = target: T3, pilin motif peptide DGWLQDVHVYPKHQALS
T3 chain: DGWLQDVHVYPKHQALS

[7] = target: sorting signal peptide (quantitative HPLC assay of Table 2)
[8] = target: the molecule itself; experiment: X-ray crystallography (homodimer in the crystal)

B1: ΔSrtA^2M (SrtA^2M with the H1 helix, residues 37-54, removed) (protein)
chain: DSPAVRDSVLEAARQYNTSVVGFPILGPGLNRASKNSGPYLDYLQQLNPQRAERPVIASISIPTIDAHLPIYHGTDTATLEHGLGHLYGSALPVGGTGTHPVITGHSGLANATLFDNLEDVKEHDPIYITVQGETLKYEVDAINVVLPEDTKLLAPDPNKDQITLITCTPYAVNSHRLLVRAHRVDLDPNDPNLTQTGTKIWQ
Which Vmax of hydrolysis kinetics (HPLC-based assay, SpaApep cleavage) [1] does the source give for B1 here?
The Vmax of hydrolysis kinetics (HPLC-based assay, SpaApep cleavage) was 6.3 µM/h.

And the “in vitro SpaA pilus polymerization (SDS-PAGE)” value [2]?
The value was “the removal of the H1 helix in the SrtA^2M enzyme also abrogates pilus polymerization”.

B2: SrtA^2M N228A variant (protein)
chain: NNARQARVAQSYENSYEVDSPAVRDSVLEAARQYNTSVVGFPILGPGLNRASKNSGPYLDYLQQLNPQRAERPVIASISIPTIDAHLPIYHGTDTATLEHGLGHLYGSALPVGGTGTHPVITGHSGLANATLFDNLEDVKEHDPIYITVQGETLKYEVDAINVVLPEDTKLLAPDPNKDQITLITCTPYAVASHRLLVRAHRVDLDPNDPNLTQTGTKIWQ
What does the source list for B2?
hydrolysis of SpaApep (HPLC-based assay, SrtA^2M set as 100%) [1]: none of the mutants exhibited any significant defect in cleaving the LPXTG (SEQ ID NO. 5) motif; transpeptidation in vitro (ligation of ^NSpaA and ^CSpaA, SDS-PAGE) [3]: defective in transpeptidation in vitro, as no isopeptide linked SpaA-SpaA product was produced even after 48 hours

B3: CdSrtA^3M (CdSrtA D81G/W83G/N85A triple mutant) (protein)
chain: NNARQARVAQSYENSYEVDSPAVRDSVLEAARQYNTSVVGFPILGPGLARASKNSGPYLDYLQQLNPQRAERPVIASISIPTIDAHLPIYHGTDTATLEHGLGHLYGSALPVGGTGTHPVITGHSGLANATLFDNLEDVKEHDPIYITVQGETLKYEVDAINVVLPEDTKLLAPDPNKDQITLITCTPYAVNSHRLLVRAHRVDLDPNDPNLTQTGTKIWQ
For B3, which “hydrolysis of LPATG peptide (HPLC)” value [4] is on record?
Its value is “CdSrtA^3M is unable to process any significant amount of peptide”.

What about the “HPLC-based sorting signal cleavage assay” value [1] of the same protein?
The value was “the CdSrtA^3M triple mutant exhibits the highest level of activity in a HPLC-based sorting signal cleavage assay”.

And the “cross-linked ^NSpaAx^CSpaA product after 24 hour incubation, relative to CdSrtA^2M (gel densitometry)” value [5]?
Its value is 35% more product than CdSrtA^2M.

And the “cross-linked ^NSpaAx^CSpaA product after 24 hour incubation, relative to CdSrtA^WT (gel densitometry)” value [5]?
Its value is 10.6-fold more cross-linked ^NSpaAx^CSpaA product than CdSrtA^WT.

And the “labeling of ^NSpaA with the sorting signal peptide (MALDI-MS)” value [3]?
Its value is >95% of ^NSpaA is labeled with the peptide.

And the “ligation of the pilin motif peptide to ^CSpaA or to the sorting signal peptide (MALDI-MS)” value [6]?
The value was “In both instances, no detectable product was observed”.

And the Km (M) × 10^-4 [7]?
Its Km (M) × 10^-4 is 8e-05 M.

What about the Vmax (s^-1) × 10^-9 [7] of the same protein?
Its Vmax (s^-1) × 10^-9 is 1.4e-09 s⁻¹.

And the kcat (s^-1) × 10^-5 [7]?
Its kcat (s^-1) × 10^-5 is 5.7e-05 s⁻¹.

And the kcat/kM [7]?
Its kcat/kM is 0.7 M⁻¹ s⁻¹.

B4: SrtA^2M (residues 37-257 of CdSrtA with D81G/W83G lid mutations) (protein)
chain: NNARQARVAQSYENSYEVDSPAVRDSVLEAARQYNTSVVGFPILGPGLNRASKNSGPYLDYLQQLNPQRAERPVIASISIPTIDAHLPIYHGTDTATLEHGLGHLYGSALPVGGTGTHPVITGHSGLANATLFDNLEDVKEHDPIYITVQGETLKYEVDAINVVLPEDTKLLAPDPNKDQITLITCTPYAVNSHRLLVRAHRVDLDPNDPNLTQTGTKIWQ
B4 was tested. Which Vmax of hydrolysis kinetics (HPLC-based assay, SpaApep cleavage) [1] did it give?
The Vmax of hydrolysis kinetics (HPLC-based assay, SpaApep cleavage) was 6.3 µM/h.

B5: SrtA^2M Y225A variant (protein)
chain: NNARQARVAQSYENSYEVDSPAVRDSVLEAARQYNTSVVGFPILGPGLNRASKNSGPYLDYLQQLNPQRAERPVIASISIPTIDAHLPIYHGTDTATLEHGLGHLYGSALPVGGTGTHPVITGHSGLANATLFDNLEDVKEHDPIYITVQGETLKYEVDAINVVLPEDTKLLAPDPNKDQITLITCTPAAVNSHRLLVRAHRVDLDPNDPNLTQTGTKIWQ
Which results are given for B5?
hydrolysis of SpaApep (HPLC-based assay, SrtA^2M set as 100%) [1]: none of the mutants exhibited any significant defect in cleaving the LPXTG (SEQ ID NO. 5) motif; transpeptidation in vitro (ligation of ^NSpaA and ^CSpaA, SDS-PAGE) [3]: had impaired transpeptidation activity as well, but to a lesser extent than the S229A and N228A mutants

B6: SrtA^2M S229A variant (protein)
chain: NNARQARVAQSYENSYEVDSPAVRDSVLEAARQYNTSVVGFPILGPGLNRASKNSGPYLDYLQQLNPQRAERPVIASISIPTIDAHLPIYHGTDTATLEHGLGHLYGSALPVGGTGTHPVITGHSGLANATLFDNLEDVKEHDPIYITVQGETLKYEVDAINVVLPEDTKLLAPDPNKDQITLITCTPYAVNAHRLLVRAHRVDLDPNDPNLTQTGTKIWQ
Which results are given for B6?
hydrolysis of SpaApep (HPLC-based assay, SrtA^2M set as 100%) [1]: none of the mutants exhibited any significant defect in cleaving the LPXTG (SEQ ID NO. 5) motif; transpeptidation in vitro (ligation of ^NSpaA and ^CSpaA, SDS-PAGE) [3]: defective in transpeptidation in vitro, as no isopeptide linked SpaA-SpaA product was produced even after 48 hours

B7: Corynebacterium diphtheriae pilus-specific sortase SrtA, soluble catalytic domain fragment (residues 37-257), SrtA^WT (enzyme)
chain: NNARQARVAQSYENSYEVDSPAVRDSVLEAARQYNTSVVGFPILDPWLNRASKNSGPYLDYLQQLNPQRAERPVIASISIPTIDAHLPIYHGTDTATLEHGLGHLYGSALPVGGTGTHPVITGHSGLANATLFDNLEDVKEHDPIYITVQGETLKYEVDAINVVLPEDTKLLAPDPNKDQITLITCTPYAVNSHRLLVRAHRVDLDPNDPNLTQTGTKIWQ
notes: The His6-SUMO or His/TEV tag was removed after purification; also called CdSrtA^WT; Cd-SrtA
With B7 as the protein, how does the Vmax of hydrolysis kinetics (HPLC-based assay, SpaApep cleavage) [1] read?
The Vmax of hydrolysis kinetics (HPLC-based assay, SpaApep cleavage) was 5.5 µM/h.

Does B7 bind [8]?
Result: binds

B8: SrtA^2M N165A variant (protein)
chain: NNARQARVAQSYENSYEVDSPAVRDSVLEAARQYNTSVVGFPILGPGLNRASKNSGPYLDYLQQLNPQRAERPVIASISIPTIDAHLPIYHGTDTATLEHGLGHLYGSALPVGGTGTHPVITGHSGLAAATLFDNLEDVKEHDPIYITVQGETLKYEVDAINVVLPEDTKLLAPDPNKDQITLITCTPYAVNSHRLLVRAHRVDLDPNDPNLTQTGTKIWQ
With B8 as the protein, how does the “hydrolysis of SpaApep (HPLC-based assay, SrtA^2M set as 100%)” value [1] read?
The value was “none of the mutants exhibited any significant defect in cleaving the LPXTG (SEQ ID NO. 5) motif”.

And the “transpeptidation in vitro (ligation of ^NSpaA and ^CSpaA, SDS-PAGE)” value [3]?
The value was “this mutant retained near wild-type activity”.

B9: Staphylococcus aureus sortase A, wild type (protein)
chain: QAKPQIPKDKSKVAGYIEIPDADIKEPVYPGPATPEQLNRGVSFAEENESLDDQNISIAGHTFIDRPNYQFTNLKAAKKGSMVYFKVGNETRKYKMTSIRDVKPTDVGVLDEQKGKDKQLTLITCDDYNEKTGVWEKRKIFVATEVK
For B9, which “hydrolysis of LPATG peptide (HPLC)” value [4] is on record?
The value was “SaSrtA robustly hydrolyzes the LPATG (SEQ ID NO. 5) peptide, as expected”.

B10: Staphylococcus aureus sortase A improved variant 4M (P94S/D160N/D165A/K196T) (protein)
chain: QAKPQIPKDKSKVAGYIEIPDADIKEPVYPGPATSEQLNRGVSFAEENESLDDQNISIAGHTFIDRPNYQFTNLKAAKKGSMVYFKVGNETRKYKMTSIRNVKPTAVGVLDEQKGKDKQLTLITCDDYNEKTGVWETRKIFVATEVK
Which “hydrolysis of LPATG peptide (HPLC)” value [4] does the source give for B10 here?
The value was “almost entirely hydrolyzes the full length peptide after 24 hrs”.

B11: CdSrtA^Δ (CdSrtA active truncated variant with nine lid residues … deleted) (protein)
chain: NNARQARVAQSYENSYEVDSPAVRDSVLEAARQYNTSVVGFPSKNSGPYLDYLQQLNPQRAERPVIASISIPTIDAHLPIYHGTDTATLEHGLGHLYGSALPVGGTGTHPVITGHSGLANATLFDNLEDVKEHDPIYITVQGETLKYEVDAINVVLPEDTKLLAPDPNKDQITLITCTPYAVNSHRLLVRAHRVDLDPNDPNLTQTGTKIWQ
How did the Km (M) × 10^-4 [7] turn out when B11 was run?
Its Km (M) × 10^-4 is 0.00016 M.

What about the Vmax (s^-1) × 10^-9 [7] of the same protein?
Its Vmax (s^-1) × 10^-9 is 1e-08 s⁻¹.

What about the kcat (s^-1) × 10^-5 [7] of the same protein?
Its kcat (s^-1) × 10^-5 is 0.0004 s⁻¹.

What about the kcat/kM [7] of the same protein?
Its kcat/kM is 2.5 M⁻¹ s⁻¹.
